This is an account of results in patent US20190241669A1 (published 2019).

Where a chain is given by its changes, count along the chain named.

To fix the notation:
B1: L3.PY/L1.FF/H3.YA (antibody, V domains shown)
VH: EVQLLESGGGLVQPGGSLRLSCAASGFTFGSYAMTWVRQAPGKGLEWVSAISGSGGNTFYADSVKGRFTISRDNSKNTLYLQMNSLRAEDTAVYYCARVSPIYAGMDYWGQGTLVTVSS
VL: EIVLTQSPGTLSLSPGERATLSCRASQSVSSFFLAWYQQKPGQAPRLLIYGASSRATGIPDRFSGSGSGTDFTLTISRLEPEDFAVYYCQHYPYPPSFTFGQGTKVEIK
notes: IgG
B2: L3.PY/L3.KF/H2.YQ (antibody, V domains shown)
VH: B1 VH with G53Y, S54Q, Y103A, A104S
VL: B1 VL with F32S, F33Y, Q90K, H91F
notes: IgG
B3: L3.PY/L1.PH/H3.AE (antibody, V domains shown)
VH: B1 VH with Y103A, G105E
VL: B1 VL with S31P, F32H, F33Y
notes: IgG
B4: L3.PY/L3.KF/H3.TAQ (antibody, V domains shown)
VH: B1 VH with A97T, Y103A, G105Q
VL: B1 VL with F32S, F33Y, Q90K, H91F
notes: IgG
B5: L3.PY/L3.KF/H2.DY (antibody, V domains shown)
VH: B1 VH with S52D, G53Y, Y103A, A104S
VL: B1 VL with F32S, F33Y, Q90K, H91F
notes: IgG
B6: L3.PY/L1.PH/H3.AQ (antibody, V domains shown)
VH: B1 VH with Y103A, G105Q
VL: B1 VL with S31P, F32H, F33Y
notes: IgG
B7: L3.PY/L3.KF/H2.QL (antibody, V domains shown)
VH: B1 VH with S63Q, V64L, Y103A, A104S
VL: B1 VL with F32S, F33Y, Q90K, H91F
notes: IgG
B8: L3.PY/L3.KY/H2.QR (antibody, V domains shown)
VH: B1 VH with S63Q, V64R, Y103A, A104S
VL: B1 VL with F32S, F33Y, Q90K, H91Y
notes: IgG
B9: L3.PY/L1.PH/H3.TAQ (antibody, V domains shown)
VH: B1 VH with A97T, Y103A, G105Q
VL: B1 VL with S31P, F32H, F33Y
notes: IgG
B10: L3.PY/L3.KY/H2.QL (antibody, V domains shown)
VH: B1 VH with S63Q, V64L, Y103A, A104S
VL: B1 VL with F32S, F33Y, Q90K, H91Y
notes: IgG
B11: L3.PY/L1.PH/H2.HA (antibody, V domains shown)
VH: B1 VH with G53H, S54A, Y103A, A104S
VL: B1 VL with S31P, F32H, F33Y
notes: IgG
B12: L3.PY/L3.KY/H2.DY (antibody, V domains shown)
VH: B1 VH with S52D, G53Y, Y103A, A104S
VL: B1 VL with F32S, F33Y, Q90K, H91Y
notes: IgG
B13: L3.PY/L3.KY/H2.HA (antibody, V domains shown)
VH: B1 VH with G53H, S54A, Y103A, A104S
VL: B1 VL with F32S, F33Y, Q90K, H91Y
notes: IgG
B14: L3.PY/L3.KF/H3.YA (antibody, V domains shown)
VH: B1 VH
VL: B1 VL with F32S, F33Y, Q90K, H91F
notes: IgG
B15: L3.PY/L1.PH/H2.QR (antibody, V domains shown)
VH: B1 VH with S63Q, V64R, Y103A, A104S
VL: B1 VL with S31P, F32H, F33Y
notes: IgG
B16: L3.PY/L3.KF/H2.LT (antibody, V domains shown)
VH: B1 VH with G53L, S54T, Y103A, A104S
VL: B1 VL with F32S, F33Y, Q90K, H91F
notes: IgG
B17: L3.PY/L3.KY/H2.YQ (antibody, V domains shown)
VH: B1 VH with G53Y, S54Q, Y103A, A104S
VL: B1 VL with F32S, F33Y, Q90K, H91Y
notes: IgG
B18: L3.PY/L3.KY/H2.LT (antibody, V domains shown)
VH: B1 VH with G53L, S54T, Y103A, A104S
VL: B1 VL with F32S, F33Y, Q90K, H91Y
notes: IgG
B19: L3.PY/L3.KY/H3.TAQ (antibody, V domains shown)
VH: B1 VH with A97T, Y103A, G105Q
VL: B1 VL with F32S, F33Y, Q90K, H91Y
notes: IgG
B20: L3.PY/L3.KF/H3.AE (antibody, V domains shown)
VH: B1 VH with Y103A, G105E
VL: B1 VL with F32S, F33Y, Q90K, H91F
notes: IgG

T1 sequence (A0A2K5UD97 entry or part of it): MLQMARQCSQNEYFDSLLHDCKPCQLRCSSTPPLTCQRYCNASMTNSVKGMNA

The first assay addresses T1, cynomolgus monkey BCMA (cynomolgus monkey, UniProt A0A2K5UD97 1-53).
T1 construct: Soluble analyte in SPR; construct not described; also called cyBCMA; Cyno BCMA
In words: SPR, IgG on chip, cyBCMA analyte, 37C. A general note: Surface plasmon resonance follows binding to a sensor surface in real time, without labels.
The Kd is the equilibrium constant for the complex coming apart. What is called koff is the rate constant with which the complex falls apart. What is called kon is a measure of how fast the partners come together. Regarding B1, the Kd came to 1.69 nM, the “T½” value amounted to 2.77 min, the koff turned out to be 0.00416 s⁻¹ and the kon worked out at 2.46e+06 M⁻¹ s⁻¹.

As to B2, binding was characterised by a dissociation constant (Kd) of 3.55 nM, the “T½” value worked out at 2.3 min, the off-rate constant (koff) turned out to be 0.00501 s⁻¹ and the kon was 1.41e+06 M⁻¹ s⁻¹.

Turning to B3, binding was characterised by a dissociation constant (Kd) of 0.77 nM, the “T½” value is 5.72 min, the koff was 0.00202 s⁻¹ and the on-rate (kon) was found to be 2.61e+06 M⁻¹ s⁻¹.

On to B4, for which binding was characterised by a dissociation constant (Kd) of 0.95 nM, the “T½” value is 6.05 min, the koff stood at 0.00191 s⁻¹ and the association rate constant (kon) was determined as 2.01e+06 M⁻¹ s⁻¹.

For the molecule B5, the dissociation constant (Kd) worked out at 1.77 nM, the “T½” value was 3.14 min, the koff amounted to 0.00368 s⁻¹ and the on-rate constant (kon) came to 2.08e+06 M⁻¹ s⁻¹.

As for B6, the dissociation constant Kd turned out to be 1.5 nM, the “T½” value was 3.39 min, the off-rate (koff) is 0.00341 s⁻¹ and the on-rate (kon) was found to be 2.28e+06 M⁻¹ s⁻¹.

Turning to B7, binding was put at a Kd of 2.18 nM, the “T½” value is 3.73 min, the off-rate (koff) stood at 0.0031 s⁻¹ and the kon stood at 1.42e+06 M⁻¹ s⁻¹.

For B8, the Kd amounted to 3.78 nM, the “T½” value is 1.49 min, the koff worked out at 0.00774 s⁻¹ and the association rate constant (kon) was determined as 2.05e+06 M⁻¹ s⁻¹.

For the molecule B9, the Kd is 1.28 nM, the “T½” value came out at 3.61 min, the dissociation rate constant (koff) came to 0.0032 s⁻¹ and the kon came to 2.51e+06 M⁻¹ s⁻¹.

As to B10, the affinity, expressed as Kd, was 1.49 nM; the “T½” value worked out at 2.83 min; the koff was 0.00409 s⁻¹; the kon was determined as 2.75e+06 M⁻¹ s⁻¹.

As to B11, the dissociation constant (Kd) amounted to 3.44 nM, the “T½” value turned out to be 2.09 min, the koff was determined as 0.00553 s⁻¹ and the on-rate (kon) is 1.61e+06 M⁻¹ s⁻¹.

As to B12, the Kd came to 1.24 nM, the “T½” value was 4.75 min, the koff was 0.00243 s⁻¹ and the kon came out at 1.96e+06 M⁻¹ s⁻¹.

As to B13, the Kd worked out at 1.4 nM, the “T½” value was found to be 3.63 min, the off-rate constant (koff) stood at 0.00318 s⁻¹ and the kon was 2.28e+06 M⁻¹ s⁻¹.

Take B14: the equilibrium dissociation constant (Kd) was found to be 3.78 nM, the “T½” value came to 1.45 min, the dissociation rate constant (koff) is 0.00796 s⁻¹ and the on-rate (kon) turned out to be 2.1e+06 M⁻¹ s⁻¹.

Take B15: the Kd stood at 1.8 nM, the “T½” value is 2.65 min, the dissociation rate constant (koff) is 0.00436 s⁻¹ and the kon stood at 2.42e+06 M⁻¹ s⁻¹.

Consider B16, for which binding was put at a Kd of 2.16 nM, the “T½” value is 2.8 min, the koff amounted to 0.00413 s⁻¹ and the on-rate constant (kon) stood at 1.91e+06 M⁻¹ s⁻¹.

In the case of B17, the dissociation constant Kd turned out to be 2.04 nM, the “T½” value is 4.47 min, the dissociation rate constant (koff) was determined as 0.00258 s⁻¹ and the association rate constant (kon) was found to be 1.27e+06 M⁻¹ s⁻¹.

B18: the affinity, expressed as Kd, was 1.27 nM; the “T½” value is 4.98 min; the dissociation rate constant (koff) was found to be 0.00232 s⁻¹; the kon turned out to be 1.82e+06 M⁻¹ s⁻¹.

B19: the Kd was 1.06 nM, the “T½” value was found to be 6.03 min, the koff amounted to 0.00192 s⁻¹ and the kon came to 1.81e+06 M⁻¹ s⁻¹.

Turning to B20, the dissociation constant Kd was 3.05 nM, the “T½” value came out at 2.05 min, the off-rate (koff) stood at 0.00564 s⁻¹ and the kon worked out at 1.85e+06 M⁻¹ s⁻¹.

The target in another assay is Human BCMA (human) (UniProt Q02223). The assay is described as follows: SPR, IgG immobilised, huBCMA analyte, 37 C.
B1 displayed a Kd of 0.51 nM, a T½ of 6.41 min, a koff of 0.0018 s⁻¹ and an on-rate (kon) of 3.5e+06 M⁻¹ s⁻¹.

Consider B2, for which the equilibrium dissociation constant (Kd) amounted to 1.14 nM, the T½ was found to be 5.18 min, the off-rate constant (koff) was found to be 0.00223 s⁻¹ and the kon was 1.96e+06 M⁻¹ s⁻¹.

The molecule B3 registered a dissociation constant (Kd) of 0.36 nM, a T½ of 8.61 min, a koff of 0.00134 s⁻¹ and an on-rate constant (kon) of 3.68e+06 M⁻¹ s⁻¹.

Molecule B4 returned a Kd of 0.58 nM, a T½ of 7.12 min, a dissociation rate constant (koff) of 0.00162 s⁻¹ and an association rate constant (kon) of 2.82e+06 M⁻¹ s⁻¹.

For the molecule B5, the Kd was found to be 0.67 nM, the T½ was 6.35 min, the koff was determined as 0.00182 s⁻¹ and the on-rate constant (kon) came out at 2.74e+06 M⁻¹ s⁻¹.

B6 came in with a dissociation constant (Kd) of 0.52 nM, a T½ of 7.27 min, a koff of 0.00159 s⁻¹ and a kon of 3.08e+06 M⁻¹ s⁻¹.

B7 registered a dissociation constant Kd of 0.6 nM, a T½ of 9.26 min, an off-rate (koff) of 0.00125 s⁻¹ and a kon of 2.07e+06 M⁻¹ s⁻¹.

Take B8: the Kd was 0.34 nM, the T½ was found to be 11.7 min, the koff was found to be 0.00099 s⁻¹ and the kon amounted to 2.95e+06 M⁻¹ s⁻¹.

Molecule B9 had a Kd of 0.59 nM, a T½ of 5.43 min, a koff of 0.00213 s⁻¹ and a kon of 3.58e+06 M⁻¹ s⁻¹.

B10 showed a dissociation constant (Kd) of 0.57 nM, a T½ of 5.56 min, an off-rate (koff) of 0.00208 s⁻¹ and a kon of 3.65e+06 M⁻¹ s⁻¹.

As for B11, the equilibrium dissociation constant (Kd) stood at 0.49 nM, the T½ came out at 9.99 min, the koff stood at 0.00116 s⁻¹ and the kon stood at 2.37e+06 M⁻¹ s⁻¹.

B12: the equilibrium dissociation constant (Kd) turned out to be 0.2 nM, the T½ amounted to 18 min, the koff is 0.000642 s⁻¹ and the kon was found to be 3.19e+06 M⁻¹ s⁻¹.

The molecule B13 displayed a dissociation constant (Kd) of 0.49 nM, a T½ of 7.1 min, a dissociation rate constant (koff) of 0.00163 s⁻¹ and a kon of 3.29e+06 M⁻¹ s⁻¹.

With B14, the Kd is 0.47 nM, the T½ was found to be 7.85 min, the koff was found to be 0.00147 s⁻¹ and the on-rate constant (kon) was 3.12e+06 M⁻¹ s⁻¹.

The molecule B15 yielded an equilibrium dissociation constant (Kd) of 0.64 nM, a T½ of 4.89 min, a dissociation rate constant (koff) of 0.00236 s⁻¹ and a kon of 3.69e+06 M⁻¹ s⁻¹.

On to B16, for which the dissociation constant (Kd) was found to be 0.69 nM, the T½ is 6.05 min, the dissociation rate constant (koff) turned out to be 0.00191 s⁻¹ and the on-rate (kon) came to 2.75e+06 M⁻¹ s⁻¹.

In turn, B17 yielded a Kd of 0.77 nM, a T½ of 7.02 min, a dissociation rate constant (koff) of 0.00165 s⁻¹ and a kon of 2.14e+06 M⁻¹ s⁻¹.

With B18, the Kd came to 0.31 nM, the T½ is 12.8 min, the dissociation rate constant (koff) was 0.000906 s⁻¹ and the kon amounted to 2.92e+06 M⁻¹ s⁻¹.

B19 came in with a Kd of 0.23 nM, a T½ of 17.8 min, a koff of 0.000649 s⁻¹ and a kon of 2.79e+06 M⁻¹ s⁻¹.

The molecule B20 came in with a Kd of 0.51 nM, a T½ of 7.44 min, an off-rate constant (koff) of 0.00155 s⁻¹ and a kon of 3.07e+06 M⁻¹ s⁻¹.
